Source: PMC9814621, “Nanoscopic investigation of C9orf72 poly-GA oligomers on nuclear membrane disruption by a photoinducible platform” (Communications Chemistry, 2021)
Ends that are not written are not given here.

B1: GA DPRs fragment photoreleased from ADP-1 [cysteine-(glycine-alanine)12] (peptide)
peptide: CGAGAGAGAGAGAGAGAGAGAGAGA
notes: N-terminal cysteine followed by 12 glycine-alanine repeats; poly-GA dipeptide repeat translated from the G4C2 repeat expansion of C9orf72 (not part of the C9orf72 protein itself); also called (GA)12; ADP-1-derived GA DPRs; source: synthetic peptide (Fmoc chemistry, HPLC purified), released from ADP-1 by 365-nm light; also released inside SH-SY5Y cells treated with ADP-1
B2: Alexa Fluor 488-labelled GA DPRs fragment photoreleased from ADP-2 [Alexa Fluor 488-cysteine-(glycine-alanine)12] (peptide)
peptide: C(Alexa Fluor 488 C5 maleimide)GAGAGAGAGAGAGAGAGAGAGAGA
notes: N-terminal cysteine (labelled) followed by 12 glycine-alanine repeats; poly-GA dipeptide repeat of the C9orf72 repeat expansion; also called AF-488-labeled GA DPRs; ADP-2-derived GA DPRs; source: also released inside SH-SY5Y cells treated with ADP-2

Key:
[1] = molecular target: the molecule itself; assay: transmission electron microscopy; time course of the probe solution with or without irradiation (ADP-1 50 uM; 365 nm, 32 mW/cm^2, 1 min)
[2] = molecular target: the molecule itself; assay: fluorescence lifetime imaging microscopy (self-quenching); SH-SY5Y cells treated with 1 uM ADP-2 and photoinitiated; fixed 2, 12 and 24 h after UV

Row | Protein | binding result [1] | binding result [2]
1 | B1 | binds | –
2 | B2 | – | binds
